Data as given in PMC5753033 (2017).

Tests used:
[1] = biological target: T1, WAVE1 PRD[B] (human, UniProt Q92558 277-488, C296 | C407, Texas Red maleimide (KCK variants) or Alexa 546 maleimide (C variants) on the introduced cysteine); assay: AUC
[2] = biological target: WAVE1 PRD[E] (human, UniProt Q92558 277-488, C296 | C407, Texas Red maleimide (KCK variants) or Alexa 546 maleimide (C variants) on the introduced cysteine); assay: AUC
[3] = biological target: WAVE1 PRD[A] (human, UniProt Q92558 277-488, C296 | C407, Texas Red maleimide (KCK variants) or Alexa 546 maleimide (C variants) on the introduced cysteine); assay: AUC
[4] = biological target: WAVE1 PRD[C] (human, UniProt Q92558 277-488, C296 | C407, Texas Red maleimide (KCK variants) or Alexa 546 maleimide (C variants) on the introduced cysteine); assay: AUC
[5] = biological target: WAVE1 PRD[D] (human, UniProt Q92558 277-488, C296 | C407, Texas Red maleimide (KCK variants) or Alexa 546 maleimide (C variants) on the introduced cysteine); assay: AUC
[6] = biological target: WAVE1 PRD [Null] (human, UniProt Q92558 277-488, C296 | C407, Texas Red maleimide (KCK variants) or Alexa 546 maleimide (C variants) on the introduced cysteine); assay: AUC
[7] = biological target: WAVE1 PRD[F] (human, UniProt Q92558 277-488, C296 | C407, Texas Red maleimide (KCK variants) or Alexa 546 maleimide (C variants) on the introduced cysteine); assay: AUC
[8] = biological target: T1, WAVE1 PRD[B]; assay: AUC; 2:1 binding model, Kd1 (fit)
[9] = biological target: Native, cytoplasmic actin from Acanthamoeba castellanii, monomeric (Acanthamoeba castellanii); assay: FP

T1 sequence (Q92558 other isoform, or with tags, fused parts or gaps, change not shown): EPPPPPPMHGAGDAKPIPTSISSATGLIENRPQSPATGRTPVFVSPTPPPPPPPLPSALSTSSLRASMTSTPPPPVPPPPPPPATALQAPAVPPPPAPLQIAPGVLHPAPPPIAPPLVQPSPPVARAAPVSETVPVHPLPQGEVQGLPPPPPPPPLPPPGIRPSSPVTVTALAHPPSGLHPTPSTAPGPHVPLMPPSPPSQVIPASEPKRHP
Sequence of WAVE1 PRD[D] (Q92558 other isoform, or with tags, fused parts or gaps, change not shown): as above
Sequence of WAVE1 PRD[A] (Q92558 other isoform, or with tags, fused parts or gaps, change not shown): as above
Sequence of WAVE1 PRD [Null] (Q92558 other isoform, or with tags, fused parts or gaps, change not shown): as above
Sequence of WAVE1 PRD[C] (Q92558 other isoform, or with tags, fused parts or gaps, change not shown): as above
Sequence of WAVE1 PRD[E] (Q92558 other isoform, or with tags, fused parts or gaps, change not shown): as above
Sequence of WAVE1 PRD[F] (Q92558 other isoform, or with tags, fused parts or gaps, stated change not applied): as the sequence (Q92558 other isoform, or with tags, fused parts or gaps, change not shown) above

Binder | Kd [1] | Kd [2] | Kd [3] | Kd [4] | Kd [5] | Kd [6] | Kd [7] | Kd [8] | Kd [9]
Mouse profilin 2a (natural protein) MAGWQSYVDNLMCDGCCQEAAIVGYCDAKYVWAATAGGVFQSITPVEIDMIVGKDREGFFTNGLTLGAKKCSVIRDSLYVDGDCTMDIRTKSQGGEPTYNVAVGRAGRVLVFVMGKEGVHGGGLNKKAYSMAKYLRDSGF | 2 µM | 182 µM | 51 µM | 12 µM | 145 µM | 138 µM | 4 µM | 2.07 µM | –
WAVE1 WCA, unlabeled, soluble (domain or fragment) STLPVISDARSVLLEAIRKGIQLRKVEEQREQEAKHERIENDVATILSRRIAVEYSDSEDDSEFDEVDWLE | – | – | – | – | – | – | – | – | 0.068 µM
Alexa488-labeled WAVE1 WCA (domain or fragment, Alexa488-maleimide on Cys490) SCLPVISDARSVLLEAIRKGIQLRKVEEQREQEAKHERIENDVATILSRRIAVEYSDSEDDSEFDEVDWLE | – | – | – | – | – | – | – | – | 0.029 µM
